Experiments:
[1] = system: MDA-MB-231 cells; experiment: GFP-TR3/ΔDBD localization and cytochrome c release in MDA-MB-231 cells; format: cell-based; conditions: MDA-MB-231, absence of any treatment
Method: Subcellular localization assays—Cells were seeded onto cover-slips in 6-well plates overnight, then transiently transfected with GFP-fusion expression plasmids. After 16 hours, cells were washed with PBS and fixed in 4% paraformaldehyde. For mitochondrial staining, cells were then incubated with anti-Hsp60 goat IgG (Santa Cruz, USA), followed by anti-goat IgG conjugated with Cy3 (Sigma). For cyt c staining, cells were incubated with monoclonal anti-cyt c IgG (PharMingen), followed by anti-mouse IgG conjugated with Cy5 (Amersham). Fluorescent images were collected and analyzed using a MRC-1024 MP laser-scanning confocal microscope (Bio-Rad). Subcellular fractionation assays were performed as described (Li, et al. 2000 Science 289:1159-1164). Briefly, cells (1×10^7 cells) suspended in 0.5 ml hypotonic buffer (5 mM Tris-HCl, pH 7.4, 5 mM KCl, 1.5 mM MgCl2, 0.1 mM EGTA, pH 8.0, and 1 mM DTT) were homogenized and cell extracts were centrifuged at 500×g for 5 min. […]
To study whether the TR3 nuclear-to-mitochondrial targeting pathway also occurs in breast cancer cells, a GFP-TR3 fusion construct was transfected into MDA-MB-231 cells. […] Next, GFP-TR3/ΔDBD was transiently transfected into ZR-75-1 or MDA-MB-231 cells, stained for mitochondria (Hsp60) and cytochrome c (Cyt c), and analyzed by confocal microscopy.

[2] = target: T1, Bcl-2/ΔTM (Homo sapiens, UniProt P10415); experiment: Mammalian two-hybrid assay in CV-1 cells; format: cell-based; conditions: Gal-TAD fusion co-expressed with Gal4-DBD-Bcl-2/ΔTM, 48 h
T1 construct: expressed in transfected cells; host or cells: CV-1
Method: TR3/Bcl-2 interaction assays—Reporter gene assays using NurRE-tk-CAT in CV-1 cells, and GST pull-down assay were described previously (Li, et al. 2000 Science 289, 1159-1164). For the mammalian two-hybrid assays, CV-1 cells were co-transfected with pcDNA-Gal4TAD-TR3 or pcDNA-Gal4TAD-TR3/ΔDBD and pcDNA-Gal4DBD-Bcl-2/ΔTM along with a luciferase reporter gene driven by four copies of the Gal4-binding site. The cells were harvested and reporter gene activity was measured. For Co-IP assays, HEK293T cells were transiently transfected with various expression plasmids using a modified calcium phosphate precipitation method (Wu et al, 1997) in the presence of caspase inhibitors (zVAD-fmk) to prevent degradation of TR3 protein due to apoptosis. Cells were suspended in lysis buffer (50 mM Tris-HCl, PH7.4; 150 mM NaCl; 20 mM EDTA; 1% NP-40; 1 mM PMSF; 50 μg/ml Leupeptin; […]; 0.1 mM Na3VO4; and 1 mM DTT). […] Immunoreactive products were detected by chemiluminescence with an enhanced chemiluminescence system (ECL) (Amersham).
E. Two-hybrid assay—a two-hybrid assay was performed to assess the interaction of TR3 and Bcl-2. […] Reporter gene activity was determined 48 h later and normalized relative to β-gal activity.

T1 sequence (P10415 1-204 limits assumed, stated change not applied): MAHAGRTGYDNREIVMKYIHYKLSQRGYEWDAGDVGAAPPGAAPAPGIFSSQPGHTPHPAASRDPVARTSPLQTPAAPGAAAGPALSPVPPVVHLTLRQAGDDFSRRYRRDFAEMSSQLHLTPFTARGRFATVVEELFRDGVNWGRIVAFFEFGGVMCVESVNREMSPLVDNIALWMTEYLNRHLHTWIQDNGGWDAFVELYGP

B1: TR3/ΔDBD: TR3 mutant with the DNA binding domain removed; used as GFP fusion (protein)
chain: MPCIQAQYGTPAPSPGPRDHLASDPLTPEFIKPTMDLASPEAAPAAPTALPSFSTFMDGYTGEFDTFLYQLPGTVQPCSSASSSASSTSSSSATSPASASFKFEDFQVYGCYPGPLSGPVDEALSSSGSDYYGSPCSAPSPSTPSFQPPQLSPWDGSFGHFSPSQTYLVLHRLQCARGFGDWIDSILAFSRSLHSLLVDVPAFACLSALVLITDRHGLQEPRRVEELQNRIASCLKEHVAAVAGEPQPASCLSRLLGKLPELRTLCTQGLQRIFYLKLEDLVPPPPIIDKIFMDTLPF
modifications: left off: large carriers; small tags and cut ends
notes: used as GFP fusion
GFP-TR3/ΔDBD subcellular localization [1]: targeted to mitochondria | cytochrome c release [1]: caused release of cytochrome c from the mitochondria | Gal4 reporter gene activity [2]: strongly activated
